Results on six molecules are retold here after patent US20140356285A1, “COMPOSITIONS AND METHODS RELATED TO TISSUE TARGETING” (THE BOARD OF REGENTS OF THE UNIVERSITY OF TEXAS SYSTEM, priority 2011, published 2014).

To fix the notation:
B2: human leukocyte proteinase-3 (PR-3) (enzyme)
chain: IVGGHEAQPHSRPYMASLQMRGNPGSHFCGGTLIHPSFVLTAPHCLRDIPQRLVNVVLGAHNVRTQEPTQQHFSVAQVFLNNYDAENKLNDILLIQLSSPANLSASVTSVQLPQQDQPVPPHGTQCLAMGWGRVGAHDPPAQVLQELNVTVVTFFCRPHNICTFVPRRKAGICCFGDSGGPLICDGIIQGIDSFVIWGCATRLFPDFFTRVAYDWIRSTLR
notes: In the ELISAs the PR-3 was bought (Sigma); also called active PR-3; endogenous PR-3

Experiment [1] deals with cells of mouse WAT vasculature. The settings on record: previous research (Kolonin et al., 2004); cited from earlier work.
In another experiment the target is T1, prohibitin (Homo sapiens, UniProt P35232).
T1 construct: gift from Dr. Srikumar Chellappan (H. Lee Moffitt Cancer Center & Research Institute)
T1 sequence (P35232 1-272): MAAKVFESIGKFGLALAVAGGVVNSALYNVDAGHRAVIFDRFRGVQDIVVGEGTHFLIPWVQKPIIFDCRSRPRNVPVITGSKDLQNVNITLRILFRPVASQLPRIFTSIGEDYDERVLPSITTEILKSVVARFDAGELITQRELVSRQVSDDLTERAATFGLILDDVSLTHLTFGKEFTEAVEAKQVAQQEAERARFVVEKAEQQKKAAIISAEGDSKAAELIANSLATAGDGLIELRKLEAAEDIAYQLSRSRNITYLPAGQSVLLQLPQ
Description: Phage binding assay on immobilized prohibitin. As to conditions: increasing concentrations of synthetic peptide (FIG. 3B). The protocol:
(§1) Phage Binding Assays. Binding of targeted phage to immobilized candidate receptors was evaluated as described (Kolonin et al., 2006b). Micro-wells of 96-well plates were blocked with phosphate-buffered saline (PBS) containing 3% BSA, washed, and incubated with 10^9 TU of targeted phage. Inhibition of phage binding was performed in the presence of increasing concentrations of synthetic peptides, as indicated. For phage display screening on immobilized prohibitin, 10^9 TU of phage clones recovered from the second round of in vivo selection were incubated ON with 1 μg of immobilized recombinant GST-prohibitin. Bound phage were recovered by infection of host bacteria (E. coli K91 Kan).

A further experiment concerns the target T2, PR-3 (Homo sapiens, UniProt P24158).
T2 construct: purchased Sigma
T2 sequence (P24158 28-248 limits assumed): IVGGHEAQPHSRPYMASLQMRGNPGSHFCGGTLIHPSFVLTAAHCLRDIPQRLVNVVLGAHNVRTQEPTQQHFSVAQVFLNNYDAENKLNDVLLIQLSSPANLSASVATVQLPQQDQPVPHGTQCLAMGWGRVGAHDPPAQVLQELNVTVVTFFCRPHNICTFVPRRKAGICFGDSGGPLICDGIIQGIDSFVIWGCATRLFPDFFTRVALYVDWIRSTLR
Briefly: Phage binding competition assay, targeted phage and cognate synthetic peptide. The settings on record: FIG. 4E. The protocol:
as §1

A further experiment concerns the target T3, ANXAS (Homo sapiens, UniProt P08758).
T3 construct: purchased AmProx
T3 sequence (P08758 1-320): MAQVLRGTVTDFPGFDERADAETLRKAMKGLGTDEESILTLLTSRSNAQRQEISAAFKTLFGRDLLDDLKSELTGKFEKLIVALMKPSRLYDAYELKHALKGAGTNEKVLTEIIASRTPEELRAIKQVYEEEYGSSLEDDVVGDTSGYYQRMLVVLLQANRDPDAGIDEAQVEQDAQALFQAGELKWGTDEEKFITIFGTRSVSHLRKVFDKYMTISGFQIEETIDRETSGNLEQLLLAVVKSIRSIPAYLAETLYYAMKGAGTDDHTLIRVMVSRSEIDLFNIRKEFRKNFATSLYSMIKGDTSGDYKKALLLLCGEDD
Description: Capture of GST-prohibitin with immobilized control His6-ANXAS. The class given is binding. As to conditions: recombinant GST-conjugated protein (FIG. 3E). As for the experimental part:
(§2) Protein Binding Assays. Titration of anti-peptide antibodies was performed on Maxisorb Immunoplates (Nunc) coated with 1 μg/mL of peptides or proteins. Incubation with primary antibodies was followed by signal detection with goat anti-rabbit HRP-conjugated IgG (Sigma-Aldrich; St. Louis, Mo.) and 3, 3′,5,5′-tetramethylbenzidine (TMB) (Calbiochem). To evaluate protein-protein interactions, the inventors performed ELISA on 96-well plates coated with 1 μg/mL of recombinant candidate receptors, as indicated. Blocking of exposed non-specific binding sites was performed with PBS containing either 2% gelatin or 1% BSA, as indicated. Ligand candidates were added to the wells at different concentrations, as indicated. Specific binding was detected by incubation with appropriate primary and secondary antibodies. For capture experiments, immobilized His6-ANXA2 and ANXAS were incubated with recombinant GST-prohibitin. Protein interaction, assessed by immunoblotting with anti-GST antibody, was detected with anti-rabbit or anti-goat secondary alkaline phosphatase-conjugated polyclonal antibodies.

Another experiment deals with T4, ANXA2 (Homo sapiens, UniProt P07355).
T4 construct: purchased AmProx
T4 sequence (P07355 whole entry): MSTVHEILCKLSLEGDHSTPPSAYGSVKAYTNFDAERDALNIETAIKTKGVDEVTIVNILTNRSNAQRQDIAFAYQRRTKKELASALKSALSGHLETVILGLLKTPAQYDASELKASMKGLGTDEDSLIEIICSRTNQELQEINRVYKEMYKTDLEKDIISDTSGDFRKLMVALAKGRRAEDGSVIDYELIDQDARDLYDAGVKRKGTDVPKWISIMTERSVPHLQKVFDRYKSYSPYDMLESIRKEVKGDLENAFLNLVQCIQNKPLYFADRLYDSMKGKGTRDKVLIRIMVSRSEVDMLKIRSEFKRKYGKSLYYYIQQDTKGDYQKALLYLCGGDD
Description: Capture of GST-prohibitin with immobilized His6-ANXA2. The settings on record: recombinant GST-conjugated protein (FIG. 3E). The class given is binding. The protocol: as §2

A further experiment concerns the target T5, His6-ANXA5 (UniProt P08758 1-320, limits assumed).
T5 construct: also called ANXAS (so in the source); control His6-ANXAS; not shown: His6 tag
T5 sequence (looked up): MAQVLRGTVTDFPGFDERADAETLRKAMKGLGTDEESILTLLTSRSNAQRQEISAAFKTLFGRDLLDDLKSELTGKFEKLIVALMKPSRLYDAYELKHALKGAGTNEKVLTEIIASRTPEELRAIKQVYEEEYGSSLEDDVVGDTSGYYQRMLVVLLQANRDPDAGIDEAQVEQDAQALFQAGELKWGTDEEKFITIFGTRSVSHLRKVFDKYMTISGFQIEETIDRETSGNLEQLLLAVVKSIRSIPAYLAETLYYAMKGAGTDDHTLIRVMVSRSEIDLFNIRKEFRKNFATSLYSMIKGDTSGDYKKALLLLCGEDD
Description: capture of GST-prohibitin on immobilized His6-annexin, immunoblot with anti-GST antibody.

The next experiment addresses T6, BSA (bovine, UniProt P02769 25-607).
T6 construct: Control protein added to immobilized PR-3; also called bovine serum albumin; control protein
Description: ELISA on immobilized PR-3.

In another experiment the target is T7, BMPRIA-Fc (UniProt P36894 24-152).
T7 construct: Bought (R&D Systems); control protein; also called Fc-BMPRIA; not shown: Fc tag
T7 sequence (P36894 24-152): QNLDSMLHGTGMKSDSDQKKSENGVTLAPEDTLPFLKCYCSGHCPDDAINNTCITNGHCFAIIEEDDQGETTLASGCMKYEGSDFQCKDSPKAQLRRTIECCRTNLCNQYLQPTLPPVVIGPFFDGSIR
Description: ELISA on immobilized PR-3.

The target of experiment [2] is B2. Briefly: affinity capture on monoavidin beads loaded with biotinylated peptide, from a membrane extract of human bone marrow cells; SDS-PAGE.
Description: (B) Liquid chromatography-mass spectrometry (LC-MS/MS) of peptides matching the candidate receptor PR-3. Peptides identified are underlined. […] Arrow: ˜35 kDa band specific to the RAGE-like peptides.

No end group written: not given here. *: point of attachment. Biotin = O=C1N[C@H]2[C@H](CS[C@H]2CCCCC(=O)*)N1

T6 sequence (P02769 25-607 limits assumed): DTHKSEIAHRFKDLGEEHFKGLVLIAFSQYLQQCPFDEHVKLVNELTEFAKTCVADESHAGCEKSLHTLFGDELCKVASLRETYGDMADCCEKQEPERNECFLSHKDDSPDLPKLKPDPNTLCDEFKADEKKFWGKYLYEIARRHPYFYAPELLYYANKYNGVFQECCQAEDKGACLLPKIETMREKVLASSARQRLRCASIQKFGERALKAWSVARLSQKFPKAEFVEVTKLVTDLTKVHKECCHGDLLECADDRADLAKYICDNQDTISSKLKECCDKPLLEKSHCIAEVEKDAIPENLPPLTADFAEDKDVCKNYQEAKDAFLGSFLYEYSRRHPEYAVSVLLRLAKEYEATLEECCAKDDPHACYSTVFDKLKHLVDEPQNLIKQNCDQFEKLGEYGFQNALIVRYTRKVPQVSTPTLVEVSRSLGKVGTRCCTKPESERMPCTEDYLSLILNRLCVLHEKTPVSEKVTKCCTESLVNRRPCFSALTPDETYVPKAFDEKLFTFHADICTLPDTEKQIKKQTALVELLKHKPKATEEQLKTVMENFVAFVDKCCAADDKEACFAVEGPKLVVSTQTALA

With CKGGRAKDC, the “localization and internalization in WAT vasculature” value in experiment [1] is “localized to and internalized by cells of mouse WAT vasculature”. Further, the “inhibition of CKGGRAKDC-displaying phage binding to prohibitin by synthetic peptide” value with prohibitin was “specifically inhibited in a concentration-dependent manner”.

Take CWELGGGPC: the “inhibition of CWELGGGPC-phage binding by synthetic peptide” value with PR-3 is “specifically inhibited”. For “prohibitin: recombinant glutathione S-transferase (GST)-conjugated prohibitin”, the “binding of prohibitin to control protein ANXAS” value with ANXAS is recorded as “not to the control protein ANXAS”. The “binding of prohibitin to ANXA2” value with ANXA2 is recorded as “binds to ANXA2”.

B1: GST-prohibitin (other, UniProt P35232 1-272, looked up)
chain: MAAKVFESIGKFGLALAVAGGVVNSALYNVDAGHRAVIFDRFRGVQDIVVGEGTHFLIPWVQKPIIFDCRSRPRNVPVITGSKDLQNVNITLRILFRPVASQLPRIFTSIGEDYDERVLPSITTEILKSVVARFDAGELITQRELVSRQVSDDLTERAATFGLILDDVSLTHLTFGKEFTEAVEAKQVAQQEAERARFVVEKAEQQKKAAIISAEGDSKAAELIANSLATAGDGLIELRKLEAAEDIAYQLSRSRNITYLPAGQSVLLQLPQ
notes: Gift from Dr. Srikumar Chellappan; also called recombinant GST-prohibitin; glutathione S-transferase (GST)-conjugated protein; not shown: glutathione S-transferase (GST) tag
As to B1, the binding result with His6-ANXA5 is “no binding”. As for B2, the binding result with BSA and in the experiment with BMPRIA-Fc was “no binding” each time.

B3: negative control peptide CARAC (peptide)
peptide: Biotin-CARAC
modifications: also: cyclized, type and places not given here
notes: Negative control on monoavidin beads; also called control elution peptide
B3: in experiment [2], the binding result is “no binding”.
